These results are taken from PMC4619462, “Description of the first fungal dye-decolorizing peroxidase oxidizing manganese(II)” (Applied Microbiology and Biotechnology, 2015).

Holding throughout (test): purified protein
Substrate in data set [1]: CCn1c(=NN=c2sc3cc(S(=O)(=O)O)ccc3n2CC)sc2cc(S(=O)(=O)O)ccc21
In kind it is biochemical, Pleurotus ostreatus. To be noted: 0.25 mM H2O2, 0.1 M tartrate pH 3.5, 25 °C.

Substrate in data set [2]: Nc1c(N=Nc2ccc(S(=O)(=O)CCOS(=O)(=O)O)cc2)c(S(=O)(=O)O)cc2cc(S(=O)(=O)O)c(N=Nc3ccc(S(=O)(=O)CCOS(=O)(=O)O)cc3)c(O)c12
To be noted: 0.25 mM H2O2, 0.1 M tartrate pH 3.5 (table note; methods say pH 3), 25 °C.

Substrate in data set [3]: Nc1c(S(=O)(=O)O)cc(Nc2cccc(S(=O)(=O)CCOS(=O)(=O)O)c2)c2c1C(=O)c1ccccc1C2=O
To be noted: 0.25 mM H2O2, 0.1 M tartrate pH 3.5, 25 °C, pH 3.5.

Substrate in data set [4]: COc1cccc(OC)c1O
To be noted: 0.25 mM H2O2, 0.1 M tartrate pH 3.5 (table note; methods say pH 3), 25 °C.

Substrate in data set [5]: Nc1c(S(=O)(=O)O)cc(Nc2cccc(S(=O)(=O)CCOS(=O)(=O)O)c2)c2c1C(=O)c1ccccc1C2=O
In kind it is biochemical, Pleurotus ostreatus. To be noted: 0.25 mM H2O2, 0.1 M tartrate pH 3.5, 25 °C.

B1: Pleos-DyP4 (Pleurotus ostreatus PC15) (protein)
chain: MTTPAPPLDLNNIQGDILGGLPKRTETYFFFDVTNVDQFKANMAHFIPHIKTSAGIIKDREAIKEHKRQKKPGLVPMAAVNVSFSHLGLQKLGITDDLSDNAFTTGQRKDAEILGDPGSKNGDAFTPAWEAPFLKDIHGVIFVAGDCHGSVNKKLDEIKHIFGVGTSHASISEVTHVRGDVRPGDVHAHEHFGFLDGISNPAVEQFDQNPLPGQDPIRPGFILAKENGDSRAAARPDWAKDGSFLTFRYLFQMVPEFDDFLESNPIVLPGLSRKEGSELLGARIVGRWKSGAPIEITPLKDDPKLAADAQRNNKFDFGDSLVRGDQTKCPFAAHIRKTYPRNDLEGPPLKADIDNRRIIRRGIQFGPEVTSQEHHDKKTHHGRGLLFVCYSSSIDDGFHFIQESWANAPNFPVNAVTSAGPIPPLDGVVPGFDAIIGQKVGGGIRQISGTNPNDPTTNITLPDQDFVVPRGGEYFFSPSITALKTKFAIGVASPAPHSQAPISA
With B1, the Km in data set [1] worked out at 787 ± 160 µM; in data set [2] it was 5.7 ± 0.4 µM; in data set [3], 82 ± 13 µM; in data set [4] it was 126 ± 21 µM. The kcat in data set [1] was 277 ± 24 s⁻¹; in data set [2], 5.3 ± 0.8 s⁻¹; in data set [3], 152 ± 13 s⁻¹; in data set [4] it was 268 ± 24 s⁻¹. Further, the kcat/Km is 352000 M⁻¹ s⁻¹ in data set [1], 1.08e+06 M⁻¹ s⁻¹ in data set [2], 1.86e+06 M⁻¹ s⁻¹ in data set [3] and 2.12e+06 M⁻¹ s⁻¹ in data set [4].

B2: Pleos-VP2 (Pleurotus ostreatus) (protein)
chain: VTCATGQTTANEACCALFPILDDIQTNLFDGAQCGEEVHESLRLTFHDAIAFSPALTNAGQFGGGGADGSMIIFSDTEPNFHANLGIDEIVEAQKPFIARHNICAADFIQFAGAIGVSNCAGAPRLNFFLGRPDATQIPPDGLVPEPFDDVTKILSRMGDAGFSTVEVVWLLSSHTIAAADLVDPSIPGTPFDSTPSTFDSQFFLETMLQGTAFPGTPGNQGEVESPLAGEMRLQSDFLLARDSRSACEWQSMVNNMPKIQNRFTQVMKKLSLLGHNQADLIDCSDVIPVPKTLTKAATFPAGKSQADVEIVCNAAATPFPALSSDPGPVTAVPPVPPS
Take B2: in data set [5], the Km was 16 ± 1 µM, the kcat is 8 ± 0.2 s⁻¹ and the kcat/Km stood at 495000 M⁻¹ s⁻¹.
